In the supplement of paper PMC6757056:
± gives the standard deviation of the averaged measurements.

B1: library; a variant is named by its letters at N, in order (parent)
chain: GCUGUCACCGGUGUAUUACCCUAGUGGUCGACCGGUCUGAUGAGUCUNNNNNNAGACGAAACAGC

Tests used:
hypoxanthine [1] = variants of: B1; test: FACS-Seq fitted mean relative fluorescence mCherry/BFP without ligand (log10 relative fluorescence); ligand: hypoxanthine (xanthine aptamer); higher = higher reporter protein expression; settings: HEK293T, ligand present: no
Procedure, shortened: (§1)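 Fluorescence comes from a normal fit to bin counts, normalized against controls. HEK293T libraries lentivirally given a ribozyme-switch mCherry reporter and an EF1α-BFP marker were enriched, incubated 48 h with or without ligand, and sorted by mCherry/BFP into 6 bins. Bin genomic DNA was PCR-amplified, barcoded and sequenced on MiSeq. The log10(mCherry/BFP) mean was scaled to five spiked-in control ribozymes.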

hypoxanthine [2] = variants of: B1; test: normalized RNA/DNA level with ligand (relative to sTRSVctl = 100) (log10 (% of sTRSVctl)); ligand: hypoxanthine (xanthine aptamer); higher = less ribozyme self-cleavage, higher mRNA level; settings: ligand concentration (+) RNA-Seq: 5 mM, HEK293T, reporter: mCherry (pCS4076), ligand present: yes
Procedure, shortened: (§2)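 Ribozyme switch library plasmids with mCherry reporters (eGFP in certain ligand experiments) went into HEK293T cells at 4 µg per 6-well well. Where ligand was used, it was applied 1 h before transfection, and total RNA was extracted with EDTA 72 h later for reverse transcription, amplification, barcoding and sequencing. RNA level is the RNA-to-DNA read ratio normalized to a spiked-in non-cleaving sequence or to the leading sequences, then scaled and log-transformed. Scaling was ×100 with log10, the leading set comprised 25 sequences, and the cutoff was ≥100 DNA reads.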

hypoxanthine [3] = variants of: B1; test: normalized RNA/DNA level without ligand (relative to sTRSVctl = 100) (log10 (% of sTRSVctl)); ligand: hypoxanthine (xanthine aptamer); higher = less ribozyme self-cleavage, higher mRNA level; settings: HEK293T, reporter: mCherry (pCS4076), ligand present: no
Procedure, shortened: as §2

hypoxanthine [4] = variants of: B1; test: FACS-Seq fitted mean relative fluorescence mCherry/BFP with ligand (log10 relative fluorescence); ligand: hypoxanthine (xanthine aptamer); ligand concentration (+) FACS-Seq: 5 mM; higher = higher reporter protein expression; settings: HEK293T, ligand present: yes
Procedure, shortened: as §1

| Variant | FACS-Seq fitted mean (log10) (hypoxanthine [1]) | normalized RNA/DNA level with ligand (log10) (hypoxanthine [2]) | normalized RNA/DNA level without ligand (log10) (hypoxanthine [3]) | FACS-Seq fitted mean (log10) (hypoxanthine [4]) |
| --- | --- | --- | --- | --- |
| GCUGUCACCGGUGUAUUACCCUAGUGGUCGACCGGUCUGAUGAGUCUAUUCGGAGACGAAACAGC [AUUCGG] | 0.175 ± 0.028 | 1.87 ± 0.021 | 1.46 ± 0.024 | 0.625 ± 0.014 |
| GCUGUCACCGGUGUAUUACCCUAGUGGUCGACCGGUCUGAUGAGUCUGUUAUGAGACGAAACAGC [GUUAUG] | 0.223 ± 0.011 | 1.87 ± 0.039 | 1.46 ± 0.015 | 0.509 ± 0.01 |
| GCUGUCACCGGUGUAUUACCCUAGUGGUCGACCGGUCUGAUGAGUCUUUUAUAAGACGAAACAGC [UUUAUA] | -0.64 ± 0.014 | 1.93 ± 0.024 | 1.849 ± 0.0039 | -0.329 ± 0.11 |
| GCUGUCACCGGUGUAUUACCCUAGUGGUCGACCGGUCUGAUGAGUCUUUUAUUAGACGAAACAGC [UUUAUU] | 0.761 ± 0.032 | 1.9334 ± 0.00045 | 1.86 ± 0.047 | 0.799 ± 0.067 |
| GCUGUCACCGGUGUAUUACCCUAGUGGUCGACCGGUCUGAUGAGUCUAUUAUUAGACGAAACAGC [AUUAUU] | 0.5583 ± 0.0011 | 1.91 ± 0.0029 | 1.881 ± 0.011 | 0.668 ± 0.014 |
| GCUGUCACCGGUGUAUUACCCUAGUGGUCGACCGGUCUGAUGAGUCUAUUCUCAGACGAAACAGC [AUUCUC] | 0.8249 ± 0.0011 | 2.01 ± 0.033 | 1.96 ± 0.044 | 0.724 ± 0.063 |
| GCUGUCACCGGUGUAUUACCCUAGUGGUCGACCGGUCUGAUGAGUCUUUUGAGAGACGAAACAGC [UUUGAG] | 0.198 ± 0.18 | 1.88 ± 0.027 | 1.54 ± 0.021 | 0.502 ± 0.067 |
| GCUGUCACCGGUGUAUUACCCUAGUGGUCGACCGGUCUGAUGAGUCUUUUGAAAGACGAAACAGC [UUUGAA] | 0.522 ± 0.076 | 1.9 ± 0.041 | 1.75 ± 0.036 | 0.351 ± 0.04 |
| GCUGUCACCGGUGUAUUACCCUAGUGGUCGACCGGUCUGAUGAGUCUCUUCCCAGACGAAACAGC [CUUCCC] | -0.199 ± 0.041 | 1.9 ± 0.021 | 1.9406 ± 0.0018 | 0.0439 ± 0.038 |
| GCUGUCACCGGUGUAUUACCCUAGUGGUCGACCGGUCUGAUGAGUCUAUUCCUAGACGAAACAGC [AUUCCU] | 0.507 ± 0.036 | 1.922 ± 0.0034 | 1.89 ± 0.064 | 0.567 ± 0.011 |
| GCUGUCACCGGUGUAUUACCCUAGUGGUCGACCGGUCUGAUGAGUCUAUUCCGAGACGAAACAGC [AUUCCG] | 0.126 ± 0.023 | 1.93 ± 0.021 | 1.589 ± 0.013 | 0.296 ± 0.031 |
| GCUGUCACCGGUGUAUUACCCUAGUGGUCGACCGGUCUGAUGAGUCUAUUCAUAGACGAAACAGC [AUUCAU] | 0.124 ± 0.035 | 1.93 ± 0.049 | 1.8 ± 0.064 | 0.262 ± 0.046 |
| GCUGUCACCGGUGUAUUACCCUAGUGGUCGACCGGUCUGAUGAGUCUCUUGAAAGACGAAACAGC [CUUGAA] | 0.0914 ± 0.0068 | 1.95 ± 0.041 | 1.706 ± 0.015 | 0.182 ± 0.0048 |
| GCUGUCACCGGUGUAUUACCCUAGUGGUCGACCGGUCUGAUGAGUCUGUUCAAAGACGAAACAGC [GUUCAA] | 0.0385 ± 0.025 | 1.89 ± 0.075 | 1.79 ± 0.042 | 0.294 ± 0.0042 |
| GCUGUCACCGGUGUAUUACCCUAGUGGUCGACCGGUCUGAUGAGUCUCUUCGAAGACGAAACAGC [CUUCGA] | -0.0248 ± 0.11 | 2.01 ± 0.04 | 1.876 ± 0.012 | 0.346 ± 0.059 |
| GCUGUCACCGGUGUAUUACCCUAGUGGUCGACCGGUCUGAUGAGUCUCUUCACAGACGAAACAGC [CUUCAC] | 0.798 ± 0.0035 | 1.98 ± 0.022 | 1.89 ± 0.038 | 0.7261 ± 0.0054 |
| GCUGUCACCGGUGUAUUACCCUAGUGGUCGACCGGUCUGAUGAGUCUGUUGAGAGACGAAACAGC [GUUGAG] | 0.255 ± 0.018 | 1.81 ± 0.019 | 1.34 ± 0.038 | 0.659 ± 0.082 |
| GCUGUCACCGGUGUAUUACCCUAGUGGUCGACCGGUCUGAUGAGUCUAUUGAGAGACGAAACAGC [AUUGAG] | 0.25 ± 0.005 | 1.82 ± 0.062 | 1.37 ± 0.029 | 0.476 ± 0.0067 |
| GCUGUCACCGGUGUAUUACCCUAGUGGUCGACCGGUCUGAUGAGUCUAUUGACAGACGAAACAGC [AUUGAC] | 0.697 ± 0.08 | 1.914 ± 0.01 | 1.816 ± 0.0025 | 0.672 ± 0.11 |
| GCUGUCACCGGUGUAUUACCCUAGUGGUCGACCGGUCUGAUGAGUCUAUUGAUAGACGAAACAGC [AUUGAU] | 0.686 ± 0.037 | 1.92 ± 0.07 | 1.73 ± 0.074 | 0.657 ± 0.014 |
| GCUGUCACCGGUGUAUUACCCUAGUGGUCGACCGGUCUGAUGAGUCUGUUCGUAGACGAAACAGC [GUUCGU] | 0.476 ± 0.02 | 1.98 ± 0.087 | 1.887 ± 0.01 | 0.538 ± 0.014 |
